Experiments:
Test in all cases: EMSA; 5 mM Mg2+, Ca2+; EMSA: PBS with Ca2+ and Mg2+, 5 mM MgCl2, 1% NP40, room temperature 45 min, 4.6 pmol ESTA-1 with 0-19 pmol selectin in 10.5 ul, 6% gel run at 4 C; cell binding: 20 min at 37 C; pH not stated
L-selectin = biological target: T1, L-selectin (UniProt P14151 39-332); conditions: protein: recombinant; label: none in EMSA (SYBR Gold stain); two hairpin loops (MFOLD)
T1 sequence: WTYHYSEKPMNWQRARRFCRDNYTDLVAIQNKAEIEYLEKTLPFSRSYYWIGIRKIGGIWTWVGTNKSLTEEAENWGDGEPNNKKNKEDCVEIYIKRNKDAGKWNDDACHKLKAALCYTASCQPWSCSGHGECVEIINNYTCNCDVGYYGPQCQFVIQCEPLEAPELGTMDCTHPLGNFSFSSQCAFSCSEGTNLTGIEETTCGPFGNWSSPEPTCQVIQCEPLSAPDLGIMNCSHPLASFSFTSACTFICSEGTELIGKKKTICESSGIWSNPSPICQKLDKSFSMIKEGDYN

[1] = biological target: T2, E-selectin extracellular domain (human, UniProt P16581 22-556); conditions: protein: commercial; label: none in EMSA (SYBR Gold stain); two hairpin loops (MFOLD)
T2 sequence: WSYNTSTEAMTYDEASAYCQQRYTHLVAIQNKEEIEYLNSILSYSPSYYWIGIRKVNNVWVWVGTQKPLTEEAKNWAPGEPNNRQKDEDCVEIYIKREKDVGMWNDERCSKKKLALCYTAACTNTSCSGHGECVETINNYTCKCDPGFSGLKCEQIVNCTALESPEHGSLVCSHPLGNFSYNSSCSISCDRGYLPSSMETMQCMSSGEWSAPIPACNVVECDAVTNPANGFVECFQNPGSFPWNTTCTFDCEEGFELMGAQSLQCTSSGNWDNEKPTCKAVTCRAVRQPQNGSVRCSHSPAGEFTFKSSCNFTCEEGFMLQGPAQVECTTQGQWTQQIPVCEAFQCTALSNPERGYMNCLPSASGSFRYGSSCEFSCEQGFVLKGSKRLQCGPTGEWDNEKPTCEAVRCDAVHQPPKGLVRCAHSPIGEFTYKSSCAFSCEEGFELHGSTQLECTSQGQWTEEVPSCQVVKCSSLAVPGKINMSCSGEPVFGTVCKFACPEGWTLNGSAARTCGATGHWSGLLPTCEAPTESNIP

P-selectin = P-selectin (UniProt P16109 42-771); conditions: protein: recombinant; label: none in EMSA (SYBR Gold stain); two hairpin loops (MFOLD)
Chain of P-selectin (P16109 42-771): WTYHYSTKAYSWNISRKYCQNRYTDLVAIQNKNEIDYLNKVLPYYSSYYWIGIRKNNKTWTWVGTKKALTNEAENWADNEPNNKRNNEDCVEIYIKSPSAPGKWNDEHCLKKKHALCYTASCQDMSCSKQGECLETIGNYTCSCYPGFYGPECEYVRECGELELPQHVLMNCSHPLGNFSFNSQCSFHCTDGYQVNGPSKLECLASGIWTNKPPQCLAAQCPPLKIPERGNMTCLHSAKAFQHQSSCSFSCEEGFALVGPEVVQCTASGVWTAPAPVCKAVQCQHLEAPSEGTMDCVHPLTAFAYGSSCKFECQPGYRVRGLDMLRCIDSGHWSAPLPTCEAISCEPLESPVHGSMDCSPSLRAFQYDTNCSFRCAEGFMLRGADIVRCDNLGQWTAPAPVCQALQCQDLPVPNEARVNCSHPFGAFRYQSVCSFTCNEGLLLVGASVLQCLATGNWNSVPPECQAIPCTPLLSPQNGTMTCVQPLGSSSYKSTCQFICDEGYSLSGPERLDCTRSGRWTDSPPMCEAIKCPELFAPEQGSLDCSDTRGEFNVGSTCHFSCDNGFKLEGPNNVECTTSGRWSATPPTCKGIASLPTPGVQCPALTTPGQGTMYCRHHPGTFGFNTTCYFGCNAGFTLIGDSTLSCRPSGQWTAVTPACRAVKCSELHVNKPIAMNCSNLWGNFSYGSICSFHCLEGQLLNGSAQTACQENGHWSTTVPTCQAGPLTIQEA

B1: ESTA-1 (TA-1) (XNA)
DNA: CGCTCGGATCGATAAGCTTCGATCCCACTCTCCCGTTCACTTCTCCTCACGTCACGGATCCTCTAGAGCACTG
modifications: monothiophosphate (Rp) at all dA except 5' primer region
In the case of B1, the binding result (L-selectin) is reported as “no binding”, the Kd [1] is reported as 0.047 µM and the Kd (P-selectin) is reported as ~13 µM.
